Article PMC3107886

Tests used:
[1] = molecular target: soluble HLA-DR1 loaded with A2 peptide (human); assay: SEC
[2] = molecular target: soluble gHgL (gH residue 18-679 and gL residue 24-137) (Epstein-Barr virus) (UniProt P03231); assay: SEC
UniProt P03231, sequence (P03231 18-679 limits assumed, chain 1 of 2): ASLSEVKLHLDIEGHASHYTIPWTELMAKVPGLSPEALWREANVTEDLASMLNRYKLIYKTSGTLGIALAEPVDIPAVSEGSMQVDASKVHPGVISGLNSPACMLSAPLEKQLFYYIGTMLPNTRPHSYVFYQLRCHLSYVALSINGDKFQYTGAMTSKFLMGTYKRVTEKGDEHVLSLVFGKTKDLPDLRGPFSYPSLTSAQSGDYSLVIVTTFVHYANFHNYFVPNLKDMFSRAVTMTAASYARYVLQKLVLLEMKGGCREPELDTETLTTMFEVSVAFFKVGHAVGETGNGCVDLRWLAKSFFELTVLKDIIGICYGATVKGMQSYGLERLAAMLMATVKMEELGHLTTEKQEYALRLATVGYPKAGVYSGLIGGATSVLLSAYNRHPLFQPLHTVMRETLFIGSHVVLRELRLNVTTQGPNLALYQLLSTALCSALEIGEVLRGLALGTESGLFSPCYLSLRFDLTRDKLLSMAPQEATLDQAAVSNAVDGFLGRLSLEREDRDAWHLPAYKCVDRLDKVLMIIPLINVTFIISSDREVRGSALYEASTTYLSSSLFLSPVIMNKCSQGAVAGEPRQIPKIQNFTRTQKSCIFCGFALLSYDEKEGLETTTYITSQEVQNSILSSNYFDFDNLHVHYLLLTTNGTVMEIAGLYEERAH
UniProt P03231, sequence (P03212 24-137 limits assumed, chain 2 of 2, further chain): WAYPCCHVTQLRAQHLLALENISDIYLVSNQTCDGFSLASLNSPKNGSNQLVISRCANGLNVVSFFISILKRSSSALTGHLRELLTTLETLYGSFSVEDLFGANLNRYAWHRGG

Q: For “soluble gp42 (residue 33-223) (from UniProt P03205 33-223) (domain or fragment)”, which stoichiometry N (gp42 per HLA-DR1) [1] is on record?
A: 1

Q: What about the stoichiometry N (gp42 per gHgL) [2] of the same substance?
A: 1
